Numbered stars: 1 amine (or outer) side, 2 acyl side, 3 side chain; on linkers, the order of the positions; unused ones are H or OH. Bridge positions count the residues as written; N and C are the ends. Side chains are listed from the residue outwards. Ends that are not written are not given here. * marks the point of attachment. C20 diacid = O=C(O)CCCCCCCCCCCCCCCCCCC(=O)*; γGlu = O=C(O)[C@H](CCC(=O)[*:2])N[*:1]; AEEA = NCCOCCOCC(=O)O

Results on 4 molecules are retold here after patent US20140087995A1 (published 2014).

T1: rat amylin receptor (rat calcitonin receptor + rat RAMP 3) (rat, UniProt P32214 25-516; Q9JJ73 23-147)
T1 construct: whole, on cells; Membranes of transiently transfected BHK tk'ts 13 cells (Assay VI); also called rAmylin-R; rat amylin 3(a) receptor
T1 sequence (looked up) 1: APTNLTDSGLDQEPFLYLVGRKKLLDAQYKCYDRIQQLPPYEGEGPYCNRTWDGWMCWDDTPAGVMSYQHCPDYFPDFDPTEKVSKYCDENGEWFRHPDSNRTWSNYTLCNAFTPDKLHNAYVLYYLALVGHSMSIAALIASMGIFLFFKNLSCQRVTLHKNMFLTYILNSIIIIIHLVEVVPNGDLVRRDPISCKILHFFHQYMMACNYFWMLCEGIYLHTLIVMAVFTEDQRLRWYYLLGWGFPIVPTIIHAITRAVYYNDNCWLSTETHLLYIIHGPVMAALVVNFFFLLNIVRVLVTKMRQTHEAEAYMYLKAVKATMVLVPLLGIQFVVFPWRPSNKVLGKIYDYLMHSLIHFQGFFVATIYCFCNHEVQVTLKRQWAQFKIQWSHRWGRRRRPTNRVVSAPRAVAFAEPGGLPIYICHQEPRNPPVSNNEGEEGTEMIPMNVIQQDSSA
T1 sequence (looked up) 2: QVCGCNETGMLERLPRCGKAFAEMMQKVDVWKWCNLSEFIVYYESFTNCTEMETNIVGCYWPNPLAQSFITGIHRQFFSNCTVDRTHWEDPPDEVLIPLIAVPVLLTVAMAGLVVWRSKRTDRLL

T2: rat calcitonin receptor (rat, UniProt P32214 25-516)
T2 construct: whole, on cells; Membranes of transiently transfected BHK tk'ts 13 cells (Assay VIII); also called rCTR
T2 sequence (looked up): T1 sequence (looked up) 1

T3: human calcitonin receptor (human, UniProt P30988 25-474)
T3 construct: whole, on cells; Membranes of a stably transfected BHK cell line (Assay VII); also called hCTR; hCT
T3 sequence (looked up): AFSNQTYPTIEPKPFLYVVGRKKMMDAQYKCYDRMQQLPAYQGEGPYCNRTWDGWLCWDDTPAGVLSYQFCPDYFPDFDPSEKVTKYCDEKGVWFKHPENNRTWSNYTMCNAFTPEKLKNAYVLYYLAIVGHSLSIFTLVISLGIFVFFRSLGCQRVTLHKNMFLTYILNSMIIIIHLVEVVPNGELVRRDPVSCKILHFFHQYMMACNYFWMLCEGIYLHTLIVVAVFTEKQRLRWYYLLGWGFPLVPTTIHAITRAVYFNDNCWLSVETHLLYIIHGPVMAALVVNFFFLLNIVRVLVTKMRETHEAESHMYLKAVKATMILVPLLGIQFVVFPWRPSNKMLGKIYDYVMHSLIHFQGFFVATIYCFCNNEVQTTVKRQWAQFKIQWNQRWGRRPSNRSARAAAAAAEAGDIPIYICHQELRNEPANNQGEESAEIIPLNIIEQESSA

B1: N^ε1-[2-[2-[2-[[2-[2-[2-[[(4S)-4-carboxy-4-(19-carboxynonadecanoylamino)butanoyl]amino]ethoxy]ethoxy]acetyl]amino]ethoxy]ethoxy]acetyl]-[Arg17,Pro21,Pro27,His34 … (peptide)
peptide: K([AEEA-AEEA-γGlu-C20 diacid])CNTATCATQRLANFLRHSSPNFGAIPSSTNVGHNTY-NH2
modifications: disulfide 2-7; N-terminus assumed
SMILES: CC[C@H](C)[C@H](NC(=O)[C@H](C)NC(=O)CNC(=O)[C@H](Cc1ccccc1)NC(=O)[C@H](CC(N)=O)NC(=O)[C@@H]1CCCN1C(=O)[C@H](CO)NC(=O)[C@H](CO)NC(=O)[C@H](Cc1c[nH]cn1)NC(=O)[C@H](CCCNC(=N)N)NC(=O)[C@H](CC(C)C)NC(=O)[C@H](Cc1ccccc1)NC(=O)[C@H](CC(N)=O)NC(=O)[C@H](C)NC(=O)[C@H](CC(C)C)NC(=O)[C@H](CCCNC(=N)N)NC(=O)[C@H](CCC(N)=O)NC(=O)[C@@H](NC(=O)[C@H](C)NC(=O)[C@@H]1CSSC[C@H](NC(=O)[C@@H](N)CCCCNC(=O)COCCOCCNC(=O)COCCOCCNC(=O)CC[C@H](NC(=O)CCCCCCCCCCCCCCCCCCC(=O)O)C(=O)O)C(=O)N[C@@H](CC(N)=O)C(=O)N[C@@H]([C@@H](C)O)C(=O)N[C@@H](C)C(=O)N[C@@H]([C@@H](C)O)C(=O)N1)[C@@H](C)O)C(=O)N1CCC[C@H]1C(=O)N[C@@H](CO)C(=O)N[C@@H](CO)C(=O)N[C@H](C(=O)N[C@@H](CC(N)=O)C(=O)N[C@H](C(=O)NCC(=O)N[C@@H](Cc1c[nH]cn1)C(=O)N[C@@H](CC(N)=O)C(=O)N[C@H](C(=O)N[C@@H](Cc1ccc(O)cc1)C(N)=O)[C@@H](C)O)C(C)C)[C@@H](C)O
notes: also called compound 97
B2: N^ε1-[2-[2-[2-[[2-[2-[2-[[(4S)-4-carboxy-4-(19-carboxynonadecanoylamino)butanoyl]amino]ethoxy]ethoxy]acetyl]amino]ethoxy]ethoxy]acetyl]-[Arg17,Pro21,Pro27,Pro31 … (peptide)
peptide: K([AEEA-AEEA-γGlu-C20 diacid])CNTATCATQRLANFLRHSSPNFGAIPSSTPVGSNTY-NH2
modifications: disulfide 2-7; N-terminus assumed
SMILES: CC[C@H](C)[C@H](NC(=O)[C@H](C)NC(=O)CNC(=O)[C@H](Cc1ccccc1)NC(=O)[C@H](CC(N)=O)NC(=O)[C@@H]1CCCN1C(=O)[C@H](CO)NC(=O)[C@H](CO)NC(=O)[C@H](Cc1c[nH]cn1)NC(=O)[C@H](CCCNC(=N)N)NC(=O)[C@H](CC(C)C)NC(=O)[C@H](Cc1ccccc1)NC(=O)[C@H](CC(N)=O)NC(=O)[C@H](C)NC(=O)[C@H](CC(C)C)NC(=O)[C@H](CCCNC(=N)N)NC(=O)[C@H](CCC(N)=O)NC(=O)[C@@H](NC(=O)[C@H](C)NC(=O)[C@@H]1CSSC[C@H](NC(=O)[C@@H](N)CCCCNC(=O)COCCOCCNC(=O)COCCOCCNC(=O)CC[C@H](NC(=O)CCCCCCCCCCCCCCCCCCC(=O)O)C(=O)O)C(=O)N[C@@H](CC(N)=O)C(=O)N[C@@H]([C@@H](C)O)C(=O)N[C@@H](C)C(=O)N[C@@H]([C@@H](C)O)C(=O)N1)[C@@H](C)O)C(=O)N1CCC[C@H]1C(=O)N[C@@H](CO)C(=O)N[C@@H](CO)C(=O)N[C@H](C(=O)N1CCC[C@H]1C(=O)N[C@H](C(=O)NCC(=O)N[C@@H](CO)C(=O)N[C@@H](CC(N)=O)C(=O)N[C@H](C(=O)N[C@@H](Cc1ccc(O)cc1)C(N)=O)[C@@H](C)O)C(C)C)[C@@H](C)O
notes: also called compound 96
B3: N^ε1-[2-[2-[2-[[(4S)-4-carboxy-4-(19-carboxynonadecanoylamino)butanoyl]amino]ethoxy]ethoxy]acetyl]-[His14,Arg17,Pro21,Pro27,Arg34]-h-amylin (peptide)
peptide: K([AEEA-γGlu-C20 diacid])CNTATCATQRLAHFLRHSSPNFGAIPSSTNVGRNTY-NH2
modifications: disulfide 2-7; N-terminus assumed
SMILES: CC[C@H](C)[C@H](NC(=O)[C@H](C)NC(=O)CNC(=O)[C@H](Cc1ccccc1)NC(=O)[C@H](CC(N)=O)NC(=O)[C@@H]1CCCN1C(=O)[C@H](CO)NC(=O)[C@H](CO)NC(=O)[C@H](Cc1c[nH]cn1)NC(=O)[C@H](CCCNC(=N)N)NC(=O)[C@H](CC(C)C)NC(=O)[C@H](Cc1ccccc1)NC(=O)[C@H](Cc1c[nH]cn1)NC(=O)[C@H](C)NC(=O)[C@H](CC(C)C)NC(=O)[C@H](CCCNC(=N)N)NC(=O)[C@H](CCC(N)=O)NC(=O)[C@@H](NC(=O)[C@H](C)NC(=O)[C@@H]1CSSC[C@H](NC(=O)[C@@H](N)CCCCNC(=O)COCCOCCNC(=O)CC[C@H](NC(=O)CCCCCCCCCCCCCCCCCCC(=O)O)C(=O)O)C(=O)N[C@@H](CC(N)=O)C(=O)N[C@@H]([C@@H](C)O)C(=O)N[C@@H](C)C(=O)N[C@@H]([C@@H](C)O)C(=O)N1)[C@@H](C)O)C(=O)N1CCC[C@H]1C(=O)N[C@@H](CO)C(=O)N[C@@H](CO)C(=O)N[C@H](C(=O)N[C@@H](CC(N)=O)C(=O)N[C@H](C(=O)NCC(=O)N[C@@H](CCCNC(=N)N)C(=O)N[C@@H](CC(N)=O)C(=O)N[C@H](C(=O)N[C@@H](Cc1ccc(O)cc1)C(N)=O)[C@@H](C)O)C(C)C)[C@@H](C)O
notes: also called compound 84
B4: N^ε1-[2-[2-[2-[[2-[2-[2-[[(4S)-4-carboxy-4-(19-carboxynonadecanoylamino)butanoyl]amino]ethoxy]ethoxy]acetyl]amino]ethoxy]ethoxy]acetyl]-[Arg17,Pro21,Pro27,Pro34 … (peptide)
peptide: K([AEEA-AEEA-γGlu-C20 diacid])CNTATCATQRLANFLRHSSPNFGAIPSSTNVGPNTY-NH2
modifications: disulfide 2-7; N-terminus assumed
SMILES: CC[C@H](C)[C@H](NC(=O)[C@H](C)NC(=O)CNC(=O)[C@H](Cc1ccccc1)NC(=O)[C@H](CC(N)=O)NC(=O)[C@@H]1CCCN1C(=O)[C@H](CO)NC(=O)[C@H](CO)NC(=O)[C@H](Cc1c[nH]cn1)NC(=O)[C@H](CCCNC(=N)N)NC(=O)[C@H](CC(C)C)NC(=O)[C@H](Cc1ccccc1)NC(=O)[C@H](CC(N)=O)NC(=O)[C@H](C)NC(=O)[C@H](CC(C)C)NC(=O)[C@H](CCCNC(=N)N)NC(=O)[C@H](CCC(N)=O)NC(=O)[C@@H](NC(=O)[C@H](C)NC(=O)[C@@H]1CSSC[C@H](NC(=O)[C@@H](N)CCCCNC(=O)COCCOCCNC(=O)COCCOCCNC(=O)CC[C@H](NC(=O)CCCCCCCCCCCCCCCCCCC(=O)O)C(=O)O)C(=O)N[C@@H](CC(N)=O)C(=O)N[C@@H]([C@@H](C)O)C(=O)N[C@@H](C)C(=O)N[C@@H]([C@@H](C)O)C(=O)N1)[C@@H](C)O)C(=O)N1CCC[C@H]1C(=O)N[C@@H](CO)C(=O)N[C@@H](CO)C(=O)N[C@H](C(=O)N[C@@H](CC(N)=O)C(=O)N[C@H](C(=O)NCC(=O)N1CCC[C@H]1C(=O)N[C@@H](CC(N)=O)C(=O)N[C@H](C(=O)N[C@@H](Cc1ccc(O)cc1)C(N)=O)[C@@H](C)O)C(C)C)[C@@H](C)O
notes: also called compound 98

One assay addresses T1, rat amylin receptor (rat calcitonin …). Put plainly: SPA competition with 125I-rat amylin, membranes of BHK cells with rat calcitonin receptor + rat RAMP3 (Assay VI).
Regarding B1, the IC50 (as a rule, the concentration that inhibits the measured activity by half) is 2.24 nM.
Same read-out and setting: the result for B2 reads 0.529 nM.
As for B3, the IC50 came out at 5.05 nM.
For B4, the half-maximal inhibitory concentration (IC50) was 0.137 nM.

The next assay concerns the target T2, rat calcitonin receptor. Put plainly: ratio IC50 rat calcitonin receptor / IC50 rat amylin receptor (reference).
As to B1, the “Ratio rCT/rAmylin binding” value worked out at 71.1.
B2: the “Ratio rCT/rAmylin binding” value came to 118.
On to B3, for which the “Ratio rCT/rAmylin binding” value was 94.3.
On the same count and under the same terms, for B4 the value was 176.

A further assay deals with T3, human calcitonin receptor. Put plainly: ratio IC50 human calcitonin receptor / IC50 human amylin receptor (reference). On the procedure:
The resulting pellet was resuspended, homogenized and centrifuged (20.000 rpm, 15 min) in a buffer containing 20 mM Na-HEPES and 0.1 mM EDTA (pH 7.4, buffer 2). The resulting pellet was resuspended in buffer 2 and protein concentration was measured (BCA protein Assay, Pierce). The homogenate was kept cold during the whole procedure. The membranes were kept at −80° C. until use. The assay was performed in a 384 well Optiplate (PerkinElmer) in a total volume of 40 ul. Membranes were mixed with SPA beads. Final concentration of membranes 35 ng/μL final and SPA beads was 0.05 mg/well. Test-compounds were dissolved in DMSO and further diluted in assay buffer (50 mM Hepes, pH 7.4, 1 mM CaCl2, 5 mM MgCl₂, 0.1% OA and 0.02% Tween20). […] The final mixture was incubated with shaking at 400 rpm for 120 min at 25° C. prior to centrifugation (1500 rpm, 10 min). Samples were analyzed on TopCounter™ (Packard). The IC₅₀ was calculated using (one site binding competition analysis) GraphPad Prism5 as a measure of receptor affinity.
Membranes were prepared in the following way; the cells were rinsed with PBS and incubated with Versene for approximately 5 min before harvesting. The cells were flushed with PBS and the cell-suspension was centrifuged for 5 min at 1000 rpm. Cells were homogenized (Ultrathurrax) in a buffer containing 20 mM Na-HEPES and 10 mM EDTA (pH 7.4) and centrifuged at 20.000 rpm for 15 min. The resulting pellet was resuspended, homogenized and centrifuged (20.000 rpm, 15 min) in a buffer containing 20 mM Na-HEPES and 0.1 mM EDTA (pH 7.4, buffer 2). The resulting pellet was resuspended in buffer 2 and protein concentration was measured (BCA protein Assay, Pierce). The homogenate was kept cold during the whole procedure. The membranes were kept at −80° C. until use. Assay was performed in a 384 well Optiplate (PerkinElmer) in a total volume of 40 ul. Membranes were mixed with SPA beads.
With B1, the “Ratio hCT/hAmylin binding” value was 104.
Take B2: the “Ratio hCT/hAmylin binding” value was found to be 79.6.
As to B3, the “Ratio hCT/hAmylin binding” value amounted to 120.
B4: the “Ratio hCT/hAmylin binding” value was 74.1.

The target of another assay is T2, rat calcitonin receptor. Put plainly: SPA competition with 125I-calcitonin, membranes of BHK cells with rat calcitonin receptor (Assay VIII).
Take B1: the concentration for half-maximal inhibition (IC50) turned out to be 159 nM.
Consider B2, for which the IC50 worked out at 62.2 nM.
Regarding B3, the IC50 is 477 nM.
As to B4, the IC50 is 24.1 nM.
